Assay results reported in the supplement of paper PMC10567573.

B1: FAM189A2 (parent)
chain: CALNALTTTVCLVAAALRYLQIFA

Variants of: B1
Experiment: protein stability index of a GFP-peptide fusion (GPS, HEK-293T) (PSI 1-6); higher = more stable
Details: c terminus: a fixed tail appended
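Further: lentivirally expressed fusions sorted by FACS into six bins by GFP to DsRed ratio, PSI derived from sequencing read proportions per bin multiplied by bin number.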

Variant | protein stability index
CALNALTTTVCLVAAAMRYLQIFA [L17M] | 4.11
CALNALTTTVCLVAAAKRYLQIFA [L17K] | 3.29
CALNALTTTVCLVAAAYRYLQIFA [L17Y] | 2.25
CALNALTTTVCLVAAAVRYLQIFA [L17V] | 1.38
CALNALTTTVCLVAAALRHLQIFA [Y19H] | 1.98
CALNALTTTVCLVAAALRLLQIFA [Y19L] | 3.58
CALNALTTTVCLVAAALRPLQIFA [Y19P] | 2.86
CALNALTTTVCLVAAALRNLQIFA [Y19N] | 3.25
CALNALTTTVCLVAAALRCLQIFA [Y19C] | 3.41
CALNALTTTVCLVAAALRELQIFA [Y19E] | 3.73
CALNALTTTVCLVCAALRYLQIFA [A14C] | 4.5
CALNALTTTVCLVEAALRYLQIFA [A14E] | 3.46
CALNALTTTVCLVIAALRYLQIFA [A14I] | 3.7
CALNALTTTVCLVPAALRYLQIFA [A14P] | 3.27
CALNALTTTVCLVQAALRYLQIFA [A14Q] | 2.2
CALNALTTTVCLVTAALRYLQIFA [A14T] | 3.07
CALNCLTTTVCLVAAALRYLQIFA [A5C] | 3.07
CALNPLTTTVCLVAAALRYLQIFA [A5P] | 2.7
CALNYLTTTVCLVAAALRYLQIFA [A5Y] | 3.68
CALNQLTTTVCLVAAALRYLQIFA [A5Q] | 3.79
CALNKLTTTVCLVAAALRYLQIFA [A5K] | 4.99
CALNMLTTTVCLVAAALRYLQIFA [A5M] | 3.65
CALNVLTTTVCLVAAALRYLQIFA [A5V] | 1.92
CALNALTTTVCLVAAALRYLQTFA [I22T] | 2.33

Variant | protein stability index
CALNALTTTVCLVAAALRYLQPFA [I22P] | 4.03
CALNALTTTVCLVAAALRYLQRFA [I22R] | 2.16
CALNALTTTVCLVAAALRYLQGFA [I22G] | 3.11
CALNALTTTVCLVAAALRYLQVFA [I22V] | 2.72
CALNALTTTVCLVAAALRYLQQFA [I22Q] | 2.9
CALNALTTTVCLVAAALRYLQYFA [I22Y] | 2.44
CALNALTTTVCLVAAALRYLQHFA [I22H] | 2.75
CALNALTTTVCLVAAALRYLQLFA [I22L] | 2.83
CALNALTTTVCGVAAALRYLQIFA [L12G] | 3.05
CALNALTTTVCHVAAALRYLQIFA [L12H] | 3.28
CALNALTTTVCKVAAALRYLQIFA [L12K] | 2.3
CALNALTTTVCIVAAALRYLQIFA [L12I] | 3.35
CALNALTTTVCRVAAALRYLQIFA [L12R] | 2.39
CALNALTTTVCAVAAALRYLQIFA [L12A] | 3.5
CALNALTTTVCNVAAALRYLQIFA [L12N] | 4.01
CALNALTTTVCFVAAALRYLQIFA [L12F] | 2.56
QALNALTTTVCLVAAALRYLQIFA [C1Q] | 3.13
IALNALTTTVCLVAAALRYLQIFA [C1I] | 2.86
KALNALTTTVCLVAAALRYLQIFA [C1K] | 3.08
DALNALTTTVCLVAAALRYLQIFA [C1D] | 2.46
SALNALTTTVCLVAAALRYLQIFA [C1S] | 3.48
TALNALTTTVCLVAAALRYLQIFA [C1T] | 3.21
CALNALTTTVCLVAAALYYLQIFA [R18Y] | 3.89
CALNALTTTVCLVAAALQYLQIFA [R18Q] | 2.72

Variant | protein stability index
CALNALTTTVCLVAAALNYLQIFA [R18N] | 3.9
CALNALTTTVCLVAAALWYLQIFA [R18W] | 2.99
CALNALTTTVCLVAAALCYLQIFA [R18C] | 3.91
CALNALTTTVCLVAAALLYLQIFA [R18L] | 2.98
CALNALTTTVCLVAAALEYLQIFA [R18E] | 3.6
CALNALTTTVCLDAAALRYLQIFA [V13D] | 2.59
CALNALTTTVCLLAAALRYLQIFA [V13L] | 2.8
CALNALTTTVCLGAAALRYLQIFA [V13G] | 3.15
CALNALTTTVCLQAAALRYLQIFA [V13Q] | 2.8
CALNALTTTVCLMAAALRYLQIFA [V13M] | 2.25
CALNALTTTVCLWAAALRYLQIFA [V13W] | 3.96
CALNALTTTVCLYAAALRYLQIFA [V13Y] | 2.68
CALNALTTTVCLRAAALRYLQIFA [V13R] | 3.73
CALNALTCTVCLVAAALRYLQIFA [T8C] | 2.95
CALNALTETVCLVAAALRYLQIFA [T8E] | 4.29
CALNALTLTVCLVAAALRYLQIFA [T8L] | 1.99
CALNALTHTVCLVAAALRYLQIFA [T8H] | 2.94
CALNALTPTVCLVAAALRYLQIFA [T8P] | 2.92
CALNALTITVCLVAAALRYLQIFA [T8I] | 3.39
CALNALTSTVCLVAAALRYLQIFA [T8S] | 2.63
CALNALTWTVCLVAAALRYLQIFA [T8W] | 3.44
CALNALTNTVCLVAAALRYLQIFA [T8N] | 3.77
CALNALTATVCLVAAALRYLQIFA [T8A] | 3.34
CWLNALTTTVCLVAAALRYLQIFA [A2W] | 2.26

Variant | protein stability index
CDLNALTTTVCLVAAALRYLQIFA [A2D] | 4.37
CYLNALTTTVCLVAAALRYLQIFA [A2Y] | 3.17
CFLNALTTTVCLVAAALRYLQIFA [A2F] | 4.07
CPLNALTTTVCLVAAALRYLQIFA [A2P] | 3.11
CTLNALTTTVCLVAAALRYLQIFA [A2T] | 4.22
CILNALTTTVCLVAAALRYLQIFA [A2I] | 2.77
CQLNALTTTVCLVAAALRYLQIFA [A2Q] | 3.74
CGLNALTTTVCLVAAALRYLQIFA [A2G] | 3.74
CRLNALTTTVCLVAAALRYLQIFA [A2R] | 3.42
CALNALTTTVCLVAAALRYLQIFM [A24M] | 2.65
CALNALTTTVCLVAAALRYLQIFN [A24N] | 1.88
CALNALTTTVCLVAAALRYLQIFS [A24S] | 4.25
CALNALTTTVCLVAAALRYLQIFW [A24W] | 2.96
CALNALTTTVCLVAAALRYLQIFY [A24Y] | 3.32
CALNALTTTVCLVAAALRYLQIFF [A24F] | 2.59
CALNALTTTVCLVAAALRYLQIFT [A24T] | 3.23
CALNALTTTVCLVAAALRYLQIFH [A24H] | 3.64
CALNALTTTVCLVAAALRYLQIFP [A24P] | 2.09
CALNALTTTVCLVAAALRYLQIFC [A24C] | 3.96
CALNALTTTVCLVAAALRYLQIFV [A24V] | 3.43
CALNALTTTVCLVAAALRYLQIFG [A24G] | 4.19
CALNALTTTVCLVAAALRYLQIFE [A24E] | 2.8
